Assay results from patent US20240092942A1 (LEADARTIS S L, published 2024).

How the values were obtained:
[1] = biological target: hu4-1BB constitutively expressed on NF-kB-luc2/4-1BB Jurkat reporter cells (Promega, #JA2351) (human, UniProt Q07011 24-255); experiment: cell-based or functional assay
[2] = biological target: T1, recombinant His-tagged hu4-1BB (Sino Biological, #10014-H08H) (human, UniProt Q07011 24-186); experiment: titration ELISA on plastic immobilized His-tagged hu4-1BB, GAM-HRP
T1 construct: Bought; also called soluble hu4-1BB; not shown: His tag
T1 sequence (Q07011 24-186 limits assumed): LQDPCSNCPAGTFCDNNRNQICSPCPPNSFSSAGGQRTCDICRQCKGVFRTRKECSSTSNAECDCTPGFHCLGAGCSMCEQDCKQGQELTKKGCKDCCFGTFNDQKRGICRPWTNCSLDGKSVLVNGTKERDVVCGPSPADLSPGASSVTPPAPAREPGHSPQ

Chain of hu4-1BB constitutively expressed on NF-kB-luc2/4-1BB Jurkat reporter cells (Promega, #JA2351) (Q07011 24-255): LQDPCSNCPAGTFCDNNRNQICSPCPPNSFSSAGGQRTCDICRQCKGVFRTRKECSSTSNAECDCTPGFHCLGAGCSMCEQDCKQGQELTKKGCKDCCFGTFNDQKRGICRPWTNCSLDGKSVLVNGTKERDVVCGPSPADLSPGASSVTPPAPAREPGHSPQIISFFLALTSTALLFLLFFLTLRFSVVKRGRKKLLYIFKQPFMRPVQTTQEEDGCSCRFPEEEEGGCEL

B1: 4-1BB IgG (SAP3.28 IgG), anti-hu4-1BB chimeric antibody (antibody, V domains shown)
VH: QVQLQESGPGLVRPSQTLSLTCTVSGFSLTSYGVHWVRQPPGRGLEWIGVIWRGGSTDYNAAFMSRLSITKDNSKSQVFFEMNSLQADDTAIYYCASPLGTSWDAMDYWGQGSLVTVSS
VL: DIQMTQSPSSLSASVGDRVTITCRASQDISNYLNWYQQKPGKAPKLLIYYKSRLHSGVPSRFSGSGSGTDYTLTISSLQPEDFATYYCQQGNTLPYTFGQGTKVEIK
notes: Bivalent IgG with the Fc region of murine IgG1, supplied by Prof; M. Glennie; also called SAP3.28 mAb; 4-1EE IgG
[1]
  EC50 (read off the curve); NF-kB reporter, co-culture with CHO^huFcγRIIb [Cont.) c]: ~1 nM
[2]
  EC50 (read off the curve): ~0.2 µg/mL

B2: urelumab (anti-hu4-1BB, BMS-663513) (antibody, V domains shown)
VH: QVQLQQWGAGLLKPSETLSLTCAVYGGSFSGYYWSWIRQSPEKGLEWIGEINHGGYVTYNPSLESRVTISVDTSKNQFSLKLSSVTAADTAVYYCARDYGPGNYDWYFDLWGRGTLVTVSS
VL: EIVLTQSPATLSLSPGERATLSCRASQSVSSYLAWYQQKPGQAPRLLIYDASNRATGIPARFSGSGSGTDFTLTISSLEPEDFAVYYCQQRSNWPPALTFGGGTKVEIK
[1]
  EC50 (read off the curve); NF-kB reporter, co-culture with CHO [Cont.) c]: ~0.1 nM
  EC50 (read off the curve); NF-kB reporter, co-culture with CHO^huFcγRIIb [Cont.) c]: ~0.06 nM
